Results taken from the DeepSol protein solubility set.

assay: soluble on expression in E. coli; label from the status in PepcDB or PDB records

| Sequence | soluble on expression in E. coli |
| --- | --- |
| MGSDKIHHHHHHMLTRLELAKDWVRDAGNFLKENIAAPLEITEKTRYDDLVTNFDKEVQEQIVANILHHFPEDKILAEEDEEKIKFDSEIPHLWVLDPIDGTTNFIVQKDNFAVMLAYYEYGVGKFGLILDVMKDKLYWCDSHKAFCNQKELELKERPLAQSLLGVNSYMYRSNSGGLLDLSHQTLGVRIIGSAGISYGQLLEGKIIGYFSSLQPWDYAAGSIIAERIGYVTLTISGESPHFNCRERVFTAPSYLISEIQKYIKK | not soluble |
| MDRINGLSDEIICHILSFLPTKESALTSVLSKRWRNLFALTPNLHLVDDDLEVGGCGQTLIDFVDRVLAVSSNLPIREFSIKC | soluble |
| MIREKALEFHKNNFPGNGKIEVIPKVSLESREELTLAYTPGVAEPCKEIARDPGKVYEYTSKGNLVAVVSDGSRILGLGNIGPLAGLPVMEGKALLFKRFGGVDAFPIMIKEQEPNKFIDIVKAIAPTFGGINLEDIASPKCFYILERLREELDIPVFHDDQQGTAAVVLAGLLNALKVVGKKISEITLALFGAGAAGFATLRILTEAGVKPENVRVVELVNGKPRILTSDLDLEKLFPYRGWLLKKTNGENIEGGPQEALKDADVLISFTRPGPGVIKPQWIEKMNEDAIVFPLANPVPEILPEEAKKAGARIVATGRSDYPNQINNLLGFPGIFRGALDVRARTITDSMIIAAAKAIASIVEEPSEENIIPSPLNPIVYAREARAVAEEAMKEGVARTKVKGEWVEEHTIRLIEFYENVIAPINKKRREYSKAITRA | soluble |
| MSLSQAVSSPLYAAIDLGSNSFHMLVVRHIDGSVQTMAKIKRKVRLAAGLDEHNALSLDAMQRGWDCLSLFAERLQDIPAENIRIVGTATLRTATNAGEFIAKANQILGHPIDVISGEEEAATIYKGVAHTSGGLGRRLVVDIGGASTELIIGEGFEAKALTSLKMGCVTWLERHFKDRQLTATNFNNAILAAKQMLDPILTQYTELGWNVCVGASGTVQALQEIMLAQGMDEVITLTKLKRLQKQAMLADHLEELDIEGLTLERALVFPSGLSILIAIFESLNIEAMTLAGGALREGLVYEMVQDLRQEDIRARTIRCVQTRYQIDSAYGDQVATLASKLLAQCGGEAWINEPQAEMLLRTAAKLHEIGLTIDFKKGGEHSAYLLQHLDLPGYTRAQKHYLGEIVRRYREQLTSLPEQYALSGTSGKRVLRLLRLAVLLSHRRSPALEPMVELSAQEDKLTLTLDGEWLAKNPLTRTELELEANRQTDIGWPLSIECHEGGSHHHHHH | soluble |
| MGFNNLVSLAALIEKVFPIRYTPAGIPVLDIILKHESWQEENGQQCLVQLEIPARILGRQAEEWQYRQGVYVHVEGFLAQKSRRSLMPMLRIQNIQEYKG | not soluble |
| AIAADKEAAFDDAVEERVINEEYKIWKKNTPFLYDLVMTHALEWPSLTAQWLPDVTRPDGKDFSIHRLVLGTHTSDEQNHLVIASVQLPNDDAQFDASHYDSEKGEFGGFGSVSGKIEIEIKINHEGEVNRARYMPQNPCIIATKTPSCDVLVFDYTKHPSKPDPSGECNPDLRLRGHQKEGYGLSWNPNLSGNLLSASDDHTICLWDISAVPKEGKVVDAKTIFTGHTAVVEDVSWHLLHESLFGSVADDQKLMIWDTRSNNTSKPSHSVDAHTAEVNCLSFNPYSEFILATGSADKTVALWDLRNLKLKLHSFESHKDEIFQVQWSPHNETILASSGTDRRLNVWDLSKIGEEQSPEDAEDGPPELLFIHGGHTAKISDFSWNPNEPWVICSVSEDNIMQVWQMAENIYNDEDTEGSVDPEGQGS | soluble |
| FLNTISTKDFKQKMADKTTGFVYVGRPTCEDCQAFQPILKKELEKRQPDQKMAYYNTDKASEKSRDDMIALLKKMDIDSVPTMVYLKDGKVASTYAATDEPAKLTNWMNKVSGEVSE | soluble |
| SANSGCKDVTGPDEESFLYFAYGSNLLTERIHLRNPSAAFFCVARLQDFKLDFGNSQGKTSQTWHGGIATIFQSPGDEVWGVVWKMNKSNLNSLDEQEGVKSGMYVVIEVKVATQEGKEITCRSYLMTNYESAPPSPQYKKIICMGAKENGLPLEYQEKLKAIEPNDYTGKVSEEIEDIIKKGETQTL | soluble |
| MGHHHHHHSHMSVAGGEIRGDTGGEDTAAPGRFSFSPEPTLEDIRRLHAEFAAERDWEQFHQPRNLLLALVGEVGELAELFQWKTDGEPGPQGWSPRERAALQEELSDVLIYLVALAARCRVDLPLAVLSKMDINRRRYPAHLARSSSRKYTELPHGAISEDQAVGPADIPCDSTGQTST | soluble |
| MSLGQVFYYQPEQVHLSFGESPLEIVVTWSTMTATNESIVEYGIGGLILSATGTETKFVDGGPAKRTQYIHRVVLRDLQPSSRYEYHCGSRWGWSAEFYFHTTPAGTDWSPSLAIFGDMGNENAQSMARLQEDTQRHMYDAILHVGDFAYDMNTDDALVGDQFMNQIQSIAAYTPYMVCAGNHEEKYNFSNYRARFSMPGGTENIMYSFNLGPVHFIGFSTEVYYFMNYGLKPLVKQYEWLRRDLEEANRPENRKLRPWIVTYGHRPMYCSNDNDNDCTHSETLVRVGLPFMHWFGLEDLFYEHGVDVEIWAHEHSYERLFPIYDYKVYNGSYEEPYRNPRAPVHLVTGSAGCKEGREPFINKIPTWSAIHSRDYGYTRMKAINGSHLYFEQISVDKEGAVIDSFTIIKDEGHHHHHH | soluble |
| MGLGRQSLNIMTFSGQELTAIIKMAKSMVMADGKIKPAEIAVMTREFMRFGILQDQVDLLLKASDSIEASQAVALIARMDEERKKYVASYLGVIMASDGDIDDNELALWTLISTLCGLPTMTVMEAINNMKNL | soluble |
| SLKKIVESTTFPRTKQSITEDLKALGLKKGMTVLVHSSLSSIGWVNGGAVAVIQALIDVVTEEGTIVMPSQSVELSDPKEWGNPPVPEEWWDIIRESMPAYNSNYTPTTRGMGQIVELFRSYPEVKRSNHPNYSFVAWGKHKNKILNQHPLEFGLGEQSPLGKLYIRESYVLLLGADFDSSTCFHLAEYRIPYQKIINRGAPIIVEGKRVWKEYKELEFREELFQEVGQAFEAEHNMKVGKVGSANCRLFSLTEAVDFAEKWFINNDSKNIKK | soluble |
| MGSDKIHHHHHHMNIQEKSKIEYRSRINRVMDYIDIHLDQPLELKSIAEIANFSPFHFHRIFTFLIGETPIDYIQRLRIEKAACRLRENMDISISEIADSCGFCTVSLFSRVFKKFFGLTPSQFRKTERPVYAQDGILFSKNGQMVSKNLTPKHVLSPQLCSVKFKISYFMETKIEVKEMPDMKAVYCRHMGAFKEIVKAYEKLIKWAEPRGLYIPNVTKSATVTHDDPSVTELSKVRQSACIIVEGDVKGEGEIGNLVIPGGQYAVGHFELGTEDFEKAWNTMCKWFTESGYQQGDGCTYELYHNSHRTHPENKHIVDICIPIKPL | not soluble |
| MRYQKLEIQEANWQWKYLLKKHREGENITKHTEQSLIELKVQFLTTLQHSPAEIEQWIKAEMTAEQRKRMRQSIRAKRKRFFNAEKLTTKKKSIDLDYASWLRLSKYSKTHAMTLSETINHLIDERENQHLYSEQMAKMKASLKDLLK | not soluble |
| MQVIRKPTRMLSGVTIVSIMTHPHSCPHGKCVFCPGGVDVDTPQSYYGREPTLMRAIENDYDPFHQVQSRLRQYVENGHTPSKVELIIMGGTFLSLPIDYQDWFVTYALEAMNRFPSYDKPSFVYLEDAQVKNEKAEVRCVGMTIETKPDWAKEWHADQMLRLGATKVELGVQTVYDDILKFTNRGHTVKDSIESTRILKDSGFKVVYHVMLGLPKSDPDKDLEAFKTIFSDPNFRPDMLKIYPTLVVETAPLANLWRRGLYKPYGTETLIELISEMYRYIPKWVRVMRIQRDIPANVILDGNKKGNLRELVEKKVLEKGIKINEIRFREVGMMWQHRGLLPDHTKIHLYKEVYEASEGTEIFLSFEDEKEILIGYLRLRITSNKAHRKEIDGKTAIVRELHVYGIEVPIGSWDELGFQHRGYGSKLLSEAEKIAREEFDMRKISVLSGIGAREYYAKRGYVKEGPYMSKQLI | not soluble |
